Measurements taken from paper PMC10294715, “Single-cell RNA-seq uncovers dynamic processes orchestrated by RNA-binding protein DDX43 in chromatin remodeling during spermiogenesis”.

Target: DDX43 (Mus musculus, UniProt D3Z6P9 1-646)
Test: EMSA; EMSA: 10 nM biotin-RNA, 50 mM Tris-HCl pH 7.5, 100 mM KCl, 2.5% glycerol, 0.05% NP-40, 4 mM EDTA, 1 mM DTT, RiboLock 2 U, 37 C 30 min; 8% native TBE PAGE at 4 C; G4 folded in 50 mM Tris-HCl pH 7.5, 150 mM KCl, 0.1 mM EDTA
Conditions: protein: recombinant; tags: His tag (Ni-NTA, pET28a); label: 3' biotin; single strand

Chain of DDX43 (D3Z6P9 entry or part of it): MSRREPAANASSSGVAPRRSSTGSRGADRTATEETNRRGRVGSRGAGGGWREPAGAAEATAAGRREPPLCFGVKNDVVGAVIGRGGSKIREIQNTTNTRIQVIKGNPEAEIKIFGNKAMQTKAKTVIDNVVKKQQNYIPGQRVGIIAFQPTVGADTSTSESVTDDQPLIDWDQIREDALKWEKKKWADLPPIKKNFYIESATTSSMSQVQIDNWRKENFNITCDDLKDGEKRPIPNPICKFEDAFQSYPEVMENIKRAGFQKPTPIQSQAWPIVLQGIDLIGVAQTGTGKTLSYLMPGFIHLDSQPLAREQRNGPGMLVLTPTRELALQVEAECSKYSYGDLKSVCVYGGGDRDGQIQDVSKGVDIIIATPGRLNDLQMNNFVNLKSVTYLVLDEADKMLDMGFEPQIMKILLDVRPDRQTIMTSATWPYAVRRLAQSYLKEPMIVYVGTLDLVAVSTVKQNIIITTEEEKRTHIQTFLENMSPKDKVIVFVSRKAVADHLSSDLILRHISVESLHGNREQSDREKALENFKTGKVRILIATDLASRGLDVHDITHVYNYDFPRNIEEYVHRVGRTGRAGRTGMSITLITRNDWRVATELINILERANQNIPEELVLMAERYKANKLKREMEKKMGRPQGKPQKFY

ACCGCUGCCGUCGCUCCG (ssRNA) [ssRNA]: no binding.
